Our source for the kobs (apparent first-order constant of cross-linking) values is paper PMC9288967.

The target of assay [1] is spike RBD of the Alpha variant (B.1.1.7) (SARS-CoV-2) (UniProt P0DTC2). The assay can be described thus: cross-linking.
The target of assay [2] is spike RBD of the Delta variant (B.1.617.2) (SARS-CoV-2) (UniProt P0DTC2). The assay can be described thus: cross-linking.

Consider mNb6(108FFY) (VHH), for which the kobs (apparent first-order constant of cross-linking) in assay [1] was determined as 0.086 h⁻¹; in assay [2], 0.156 h⁻¹.
